Results on two molecules are retold here after publication PMC7913696.

For experiment [1], the target named is T1, PrimPol WT (human) (UniProt Q96LW4).
T1 sequence: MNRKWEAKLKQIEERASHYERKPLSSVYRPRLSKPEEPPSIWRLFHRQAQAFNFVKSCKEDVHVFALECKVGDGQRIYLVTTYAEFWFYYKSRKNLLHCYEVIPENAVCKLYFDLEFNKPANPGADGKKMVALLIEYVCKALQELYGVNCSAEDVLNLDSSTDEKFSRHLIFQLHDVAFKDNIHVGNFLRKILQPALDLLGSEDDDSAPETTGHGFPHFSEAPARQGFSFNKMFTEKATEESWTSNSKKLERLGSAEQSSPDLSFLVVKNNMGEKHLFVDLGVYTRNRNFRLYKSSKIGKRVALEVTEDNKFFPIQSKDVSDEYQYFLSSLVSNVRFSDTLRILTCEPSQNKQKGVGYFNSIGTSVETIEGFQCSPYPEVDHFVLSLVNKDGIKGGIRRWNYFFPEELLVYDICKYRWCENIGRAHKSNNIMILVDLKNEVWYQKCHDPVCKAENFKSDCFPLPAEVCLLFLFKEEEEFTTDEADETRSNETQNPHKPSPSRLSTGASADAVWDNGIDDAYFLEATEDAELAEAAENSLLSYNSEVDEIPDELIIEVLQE

Experiment [2] deals with T1, PrimPol WT (human). The source holds these as a separate data set.

As to “full-length (FL) human PolDIP2 tagged with C-terminal hexa-histidine (from UniProt Q9Y2S7 52-368) (natural protein)”, the filter binding of [α-32P]dCTP (1 μM dCTP, 300 nM primer/template, 600 nM PrimPol and 600 nM FL-PolDIP2, Ca2+, 37°C), against PrimPol alone in experiment [1] came to 3 fold. The primer extension by 150 nM PrimPol on a 25/70-mer primer/template with increasing FL-PolDIP2 (up to 500 nM): percent of DNA substrate extended >3 nt in experiment [2] is 46%.

B1: T3-PolDIP2 (AA 217–368), C-terminal fragment with the ApaG-like domain (domain or fragment)
chain: LRAWQEKNHPWLELSDVHRETTENIRVTVIPFYMGMREAQNSHVYWWRYCIRLENLDSDVVQLRERHWRIFSLSGTLETVRGRGVVGREPVLSKEQPAFQYSSHVSLQASSGHMWGTFRFERPDGSHFDVRIPPFSLESNKDEKTPPSGLHW
As to B1, the primer extension by 150 nM PrimPol on a 25/70-mer primer/template with increasing T3-PolDIP2 (from 150 nM): percent of DNA substrate extended >3 nt in experiment [2] was 32%.
